B1: Azoarcus group I ribozyme (parent)
chain: GUGCCUUGCGCCGGGAAACCACGCAAGGGAUGGUGUCAAAUUCGGCGAAACCUAAGCGCCCGCCCGGGCGUAUGGCAACGCCGAGCCAAGCUUCGGCGCCUGCGCCGAUGAAGGUGUAGAGACUAGACGGCACCCACCUAAGGCAAACGCUAUGGUGAAGGCAUAGUCCAGGGAGUGGCGAAAGUCACACAAACCGG

Variants of: B1
Experiment: reverse-splicing fitness (ratio to wild type); higher = more active; in vitro selection; Mg2+ level not given
Summary of the method: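 An in vitro group I ribozyme library with randomized positions was T7-transcribed and gel-purified. In triplicate, 10 pmol RNA in EPPS pH 7.5 was reacted with 50 pmoles of a 30-nt RNA substrate for 1 h at 37 °C across several added MgCl2 levels (1–48 mM), then stopped with EDTA. Products were reverse transcribed from a substrate-complementary primer, PCR-amplified and sequenced (HiSeq 4000). Fitness is a variant's read proportion after selection over that before, normalised to wild type.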

In order of falling reverse-splicing fitness:
1. GUGCCUUGCGCCGGGAAACCACGCAAGGGAUGGUGUCAAAUUCGGCGAAACCUAAGCGCCCGCCCGGGCGUAUGGCAACGCAGAGCCAAGCUUCGGCGCCUGCGCCGAUGAAGGUGUAGUGACUAGACGGCACCCACCUAAGGCGAACGCUAUGGUGAAGGCAUAGUCCAGGGAGUGGCGAAAGUCACACAAACCGG  0.142
2. GUGCCUUGCGCCGGGAAACCACGCAAGGGAUGGUGUCAAAUUCGGCGAAACCUAAGCGCCCGCCCGGGCGUAUGGCAACGCAGAGCCAAGCUUCGGCGCCUGCGCCGAUGAAGGUGUAGUGACUAGACGGCACCCACCUAAGGCCAACGCUAUGGUGAAGGCAUAGUCCAGGGAGCGGCGAAAGUCACACAAACCGG  0.0456
3. GUGCCUUGCGCCGGGAAACCACGCAAGGGAUGGUGUCAAAUUCGGCGAAACCUAAGCGCCCGCCCGGGCGUAUGGCAACGCAGAGCCAAGCUUCGGCGCCUGCGCCGAUGAAGGUGUAGUGACUAGACGGCACCCACCUAAGGCCAACGCUAUGGUGAAGGCAUAGUCCAGGGAGAGGCGAAAGUCACACAAACCGG  0.0307
4. GUGCCUUGCGCCGGGAAACCACGCAAGGGAUGGUGUCAAAUUCGGCGAAACCUAAGCGCCCGCCCGGGCGUAUGGCAACGCAGAGCCAAGCUUCGGCGCCUGCGCCGAUGAAGGUGUAGUGACUAGACGGCACCCACCUAAGGCGAACGAUAUGGUGAAGGCAUAGUCCAGGGAGUGGCGAAAGUCACACAAACCGG  0.0231
5. GUGCCUUGCGCCGGGAAACCACGCAAGGGAUGGUGUCAAAUUCGGCGAAACCUAAGCGCCCGCCCGGGCGUAUGGCAACGCAGAGCCAAGCUUCGGCGCCUGCGCCGAUGAAGGUGUAGUGACUAGACGGCACCCACCUAAGGCGAACGGUAUGGUGAAGGCAUAGUCCAGGGAGUGGCGAAAGUCACACAAACCGG  0.0192
6. GUGCCUUGCGCCGGGAAACCACGCAAGGGAUGGUGUCAAAUUCGGCGAAACCUAAGCGCCCGCCCGGGCGUAUGGCAACGCAGAGCCAAGCUUCGGCGCCUGCGCCGAUGAAGGUGUAGUGACUAGACGGCACCCACCUAAGGCGAACGAUAUGGUGAAGGCAUAGUCCAGGGAGCGGCGAAAGUCACACAAACCGG  0.0142
7. GUGCCUUGCGCCGGGAAACCACGCAAGGGAUGGUGUCAAAUUCGGCGAAACCUAAGCGCCCGCCCGGGCGUAUGGCAACGCAGAGCCAAGCUUCGGCGCCUGCGCCGAUGAAGGUGUAGUGACUAGACGGCACCCACCUAAGGCGAACGGUAUGGUGAAGGCAUAGUCAAGGGAGAGGCGAAAGUCACACAAACCGG  0.0135
8. GUGCCUUGCGCCGGGAAACCACGCAAGGGAUGGUGUCAAAUUCGGCGAAACCUAAGCGCCCGCCCGGGCGUAUGGCAACGCAGAGCCAAGCUUCGGCGCCUGCGCCGAUGAAGGUGUAGUGACUAGACGGCACCCACCUAAGGCGAACGAUAUGGUGAAGGCAUAGUCCAGGGAGAGGCGAAAGUCACACAAACCGG  0.0103
9. GUGCCUUGCGCCGGGAAACCACGCAAGGGAUGGUGUCAAAUUCGGCGAAACCUAAGCGCCCGCCCGGGCGUAUGGCAACGCAGAGCCAAGCUUCGGCGCCUGCGCCGAUGAAGGUGUAGUGACUAGACGGCACCCACCUAAGGCCAACGCUAUGGUGAAGGCAUAGUCCAGGGAGGGGCGAAAGUCACACAAACCGG  0.00979
10. GUGCCUUGCGCCGGGAAACCACGCAAGGGAUGGUGUCAAAUUCGGCGAAACCUAAGCGCCCGCCCGGGCGUAUGGCAACGCAGAGCCAAGCUUCGGCGCCUGCGCCGAUGAAGGUGUAGUGACUAGACGGCACCCACCUAAGGCGAACGGUAUGGUGAAGGCAUAGUCAAGGGAGUGGCGAAAGUCACACAAACCGG  0.0097
11. GUGCCUUGCGCCGGGAAACCACGCAAGGGAUGGUGUCAAAUUCGGCGAAACCUAAGCGCCCGCCCGGGCGUAUGGCAACGCAGAGCCAAGCUUCGGCGCCUGCGCCGAUGAAGGUGUAGUGACUAGACGGCACCCACCUAAGGCGAACGAUAUGGUGAAGGCAUAGUCGAGGGAGAGGCGAAAGUCACACAAACCGG  0.00661
12. GUGCCUUGCGCCGGGAAACCACGCAAGGGAUGGUGUCAAAUUCGGCGAAACCUAAGCGCCCGCCCGGGCGUAUGGCAACGCAGAGCCAAGCUUCGGCGCCUGCGCCGAUGAAGGUGUAGUGACUAGACGGCACCCACCUAAGGCGAACGAUAUGGUGAAGGCAUAGUCAAGGGAGAGGCGAAAGUCACACAAACCGG  0.0062
13. GUGCCUUGCGCCGGGAAACCACGCAAGGGAUGGUGUCAAAUUCGGCGAAACCUAAGCGCCCGCCCGGGCGUAUGGCAACGCAGAGCCAAGCUUCGGCGCCUGCGCCGAUGAAGGUGUAGUGACUAGACGGCACCCACCUAAGGCGAACGAUAUGGUGAAGGCAUAGUCAAGGGAGUGGCGAAAGUCACACAAACCGG  0.00563
14. GUGCCUUGCGCCGGGAAACCACGCAAGGGAUGGUGUCAAAUUCGGCGAAACCUAAGCGCCCGCCCGGGCGUAUGGCAACGCAGAGCCAAGCUUCGGCGCCUGCGCCGAUGAAGGUGUAGUGACUAGACGGCACCCACCUAAGGCGAACGAUAUGGUGAAGGCAUAGUCGAGGGAGCGGCGAAAGUCACACAAACCGG  0.00523
15. GUGCCUUGCGCCGGGAAACCACGCAAGGGAUGGUGUCAAAUUCGGCGAAACCUAAGCGCCCGCCCGGGCGUAUGGCAACGCAGAGCCAAGCUUCGGCGCCUGCGCCGAUGAAGGUGUAGUGACUAGACGGCACCCACCUAAGGCGAACGAUAUGGUGAAGGCAUAGUCGAGGGAGUGGCGAAAGUCACACAAACCGG  0.00494
16. GUGCCUUGCGCCGGGAAACCACGCAAGGGAUGGUGUCAAAUUCGGCGAAACCUAAGCGCCCGCCCGGGCGUAUGGCAACGCAGAGCCAAGCUUCGGCGCCUGCGCCGAUGAAGGUGUAGUGACUAGACGGCACCCACCUAAGGCGAACGAUAUGGUGAAGGCAUAGUCUAGGGAGAGGCGAAAGUCACACAAACCGG  0.0044
17. GUGCCUUGCGCCGGGAAACCACGCAAGGGAUGGUGUCAAAUUCGGCGAAACCUAAGCGCCCGCCCGGGCGUAUGGCAACGCAGAGCCAAGCUUCGGCGCCUGCGCCGAUGAAGGUGUAGUGACUAGACGGCACCCACCUAAGGCGAACGAUAUGGUGAAGGCAUAGUCUAGGGAGUGGCGAAAGUCACACAAACCGG  0.00423
18. GUGCCUUGCGCCGGGAAACCACGCAAGGGAUGGUGUCAAAUUCGGCGAAACCUAAGCGCCCGCCCGGGCGUAUGGCAACGCAGAGCCAAGCUUCGGCGCCUGCGCCGAUGAAGGUGUAGUGACUAGACGGCACCCACCUAAGGCCAACGCUAUGGUGAAGGCAUAGUCUAGGGAGUGGCGAAAGUCACACAAACCGG  0.00406
19. GUGCCUUGCGCCGGGAAACCACGCAAGGGAUGGUGUCAAAUUCGGCGAAACCUAAGCGCCCGCCCGGGCGUAUGGCAACGCAGAGCCAAGCUUCGGCGCCUGCGCCGAUGAAGGUGUAGUGACUAGACGGCACCCACCUAAGGCGAACGAUAUGGUGAAGGCAUAGUCAAGGGAGCGGCGAAAGUCACACAAACCGG  0.00397
20. GUGCCUUGCGCCGGGAAACCACGCAAGGGAUGGUGUCAAAUUCGGCGAAACCUAAGCGCCCGCCCGGGCGUAUGGCAACGCAGAGCCAAGCUUCGGCGCCUGCGCCGAUGAAGGUGUAGUGACUAGACGGCACCCACCUAAGGCGAACGAUAUGGUGAAGGCAUAGUCCAGGGAGGGGCGAAAGUCACACAAACCGG  0.00391
21. GUGCCUUGCGCCGGGAAACCACGCAAGGGAUGGUGUCAAAUUCGGCGAAACCUAAGCGCCCGCCCGGGCGUAUGGCAACGCAGAGCCAAGCUUCGGCGCCUGCGCCGAUGAAGGUGUAGUGACUAGACGGCACCCACCUAAGGCGAACGAUAUGGUGAAGGCAUAGUCUAGGGAGCGGCGAAAGUCACACAAACCGG  0.00385
22. GUGCCUUGCGCCGGGAAACCACGCAAGGGAUGGUGUCAAAUUCGGCGAAACCUAAGCGCCCGCCCGGGCGUAUGGCAACGCAGAGCCAAGCUUCGGCGCCUGCGCCGAUGAAGGUGUAGUGACUAGACGGCACCCACCUAAGGCGAACGAUAUGGUGAAGGCAUAGUCUAGGGAGGGGCGAAAGUCACACAAACCGG  0.003
23. GUGCCUUGCGCCGGGAAACCACGCAAGGGAUGGUGUCAAAUUCGGCGAAACCUAAGCGCCCGCCCGGGCGUAUGGCAACGCAGAGCCAAGCUUCGGCGCCUGCGCCGAUGAAGGUGUAGUGACUAGACGGCACCCACCUAAGGCCAACGCUAUGGUGAAGGCAUAGUCUAGGGAGCGGCGAAAGUCACACAAACCGG  0.00274
24. GUGCCUUGCGCCGGGAAACCACGCAAGGGAUGGUGUCAAAUUCGGCGAAACCUAAGCGCCCGCCCGGGCGUAUGGCAACGCAGAGCCAAGCUUCGGCGCCUGCGCCGAUGAAGGUGUAGUGACUAGACGGCACCCACCUAAGGCCAACGCUAUGGUGAAGGCAUAGUCUAGGGAGAGGCGAAAGUCACACAAACCGG  0.00271
25. GUGCCUUGCGCCGGGAAACCACGCAAGGGAUGGUGUCAAAUUCGGCGAAACCUAAGCGCCCGCCCGGGCGUAUGGCAACGCAGAGCCAAGCUUCGGCGCCUGCGCCGAUGAAGGUGUAGUGACUAGACGGCACCCACCUAAGGCGAACGAUAUGGUGAAGGCAUAGUCAAGGGAGGGGCGAAAGUCACACAAACCGG  0.00236
26. GUGCCUUGCGCCGGGAAACCACGCAAGGGAUGGUGUCAAAUUCGGCGAAACCUAAGCGCCCGCCCGGGCGUAUGGCAACGCAGAGCCAAGCUUCGGCGCCUGCGCCGAUGAAGGUGUAGUGACUAGACGGCACCCACCUAAGGCCAACGCUAUGGUGAAGGCAUAGUCGAGGGAGCGGCGAAAGUCACACAAACCGG  0.00235
27. GUGCCUUGCGCCGGGAAACCACGCAAGGGAUGGUGUCAAAUUCGGCGAAACCUAAGCGCCCGCCCGGGCGUAUGGCAACGCAGAGCCAAGCUUCGGCGCCUGCGCCGAUGAAGGUGUAGUGACUAGACGGCACCCACCUAAGGCCAACGCUAUGGUGAAGGCAUAGUCGAGGGAGAGGCGAAAGUCACACAAACCGG  0.00227
28. GUGCCUUGCGCCGGGAAACCACGCAAGGGAUGGUGUCAAAUUCGGCGAAACCUAAGCGCCCGCCCGGGCGUAUGGCAACGCAGAGCCAAGCUUCGGCGCCUGCGCCGAUGAAGGUGUAGUGACUAGACGGCACCCACCUAAGGCGAACGAUAUGGUGAAGGCAUAGUCGAGGGAGGGGCGAAAGUCACACAAACCGG  0.00227
29. GUGCCUUGCGCCGGGAAACCACGCAAGGGAUGGUGUCAAAUUCGGCGAAACCUAAGCGCCCGCCCGGGCGUAUGGCAACGCAGAGCCAAGCUUCGGCGCCUGCGCCGAUGAAGGUGUAGUGACUAGACGGCACCCACCUAAGGCCAACGCUAUGGUGAAGGCAUAGUCGAGGGAGGGGCGAAAGUCACACAAACCGG  0.00139
30. GUGCCUUGCGCCGGGAAACCACGCAAGGGAUGGUGUCAAAUUCGGCGAAACCUAAGCGCCCGCCCGGGCGUAUGGCAACGCAGAGCCAAGCUUCGGCGCCUGCGCCGAUGAAGGUGUAGUGACUAGACGGCACCCACCUAAGGCCAACGCUAUGGUGAAGGCAUAGUCUAGGGAGGGGCGAAAGUCACACAAACCGG  0.00109
